Measurements reported in the nanobody polyreactivity screen of Harvey et al. (2022).

Assay: yeast display, Sf9 membrane polyspecificity reagent, FACS + sequencing; frameworks hold sequencing errors
In short: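 A synthetic nanobody library was expressed on Saccharomyces cerevisiae BJ5465 by galactose induction for 36–48 hours. The library was stained for 1 hour at 4 °C with 10% biotinylated, detergent-solubilized Sf9 membrane reagent and enriched with streptavidin microbeads before FACS. Low and high (top ~1%) gates were set on anti-HA fluorescence for expression and streptavidin fluorescence for reagent binding, and each polyreactivity label reflects the gate of origin.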
With “QVQLVESGGGLVQAGGSLRLSCAASGSTFWNYAMGWYRQAPGKERELVASIDSSDGRTYYADSVKGRYTISRDNAKTTVYVQMNSLKPEDTAAYYCAKDAYAVELRPYSKLSSRAVGYWGQGTQVTVSS” the “polyreactivity (PSR sort gate)” value was “low polyreactivity”.
In the case of “QVQLVESGGRLVQAGGSLRLSCAASGLIIDYYTMGWYRQAPGKERELVAAINKSGGSTYADSVKGRFTISRDNAKNTVYLQMNCLKPEDSAVYYCAAEVDYSYWPEYSRKYYYWGEGTQVTVSS”, the “polyreactivity (PSR sort gate)” value is reported as “low polyreactivity”.
For “QVQLVESGGGLVQAGGSLRLSCAASGSTFRYYALGWYRQAPGKERELVAAISTSGGRTYYADSVKGRFTISRDNAKNTVYLQMNSLKPEDTAVYYCNARESRGYAYQTWKYYYWGQGTQVTVSS”, the “polyreactivity (PSR sort gate)” value was “high polyreactivity”.
With “QVQLVESGGGLVQAGGSLRLSCAASGSIFSTNDMGWYRQAPGKERELVAAISVSGGSTYYADSVKGRFTISRDNAKNTVYLQMNSLKPEDTAVYYCNADYTRGTMYYWGQGTQVTGSS” the “polyreactivity (PSR sort gate)” value was “low polyreactivity”.
With “QVQLVESGGGLVQAGGSLRLSCAASGYTFTSNAMGWYRQAPGKERELVAAISRSGVSTSYADSVKGRFTISRDNAKNTVYLQMNSLKPEDSAVYYCNRYYWDPTHPRYDSWGQGTQVTVSS” the “polyreactivity (PSR sort gate)” value was “high polyreactivity”.
With “QVQLVESGGGLVQAGGRLRLSCAASGITFYSYAMGRYRQAPGKERELVAAISTTVGSTYYADYVKGRFTISRDNPNNTVYLQMNSLKPEDTAVYYCNSYSVYAWIEYNYWGQGTQVTVSS” the “polyreactivity (PSR sort gate)” value was “low polyreactivity”.
For “QVQLVESGGGLVQAGGSLRLRCAASGRTFKRKAMGWYRQAPGKEREFVAVITGSGGSTYYADSVKGRFTISRDNAKNTVYLQMNSLKPEDTAVYYCAAALGLRSTSWGRRGGGGVYWGQGTQVTVSS”, the “polyreactivity (PSR sort gate)” value was “high polyreactivity”.
In the case of “QVQLVESGGGLVQAGGSLRLSCAASGLTSLGNAMGWYRQAPGKERELVAAITRTGTSTYYADSVKGRFTISRDNAKNTVYLQMNSLKPEDTAVYYCAALDRYSTEYKYQLYKQEYDYWVQGTQVTVSS”, the “polyreactivity (PSR sort gate)” value is reported as “low polyreactivity”.
For “QVQLVESGGGIVQAGGSLRLSCAASGFTFSRYTMGWFRPAPGQERELVAAINRRGGSTYYADSVKGRFTISRDNAKHTVYLQLNSVKPADTAVYYCAATYTVRSGNGIANDYWGQGTQVTVSS”, the “polyreactivity (PSR sort gate)” value was “high polyreactivity”.
With “QVQLVESGGGLVQAGGSLRLSCAASGFILAWYAMGWYRQAPGKERELVAAISTSGDSTYYADSVKGRFTISRDNAKNTVYLQMNSLKPEDTAVYYCAAGTFKPYWRKFEYWGQGTQVTLSS” the “polyreactivity (PSR sort gate)” value was “high polyreactivity”.
In the case of “QVQLVESGGGLVQAGGSLRLSCDASGLTFDYNAMGWYRQAPGKERELVAAITWSGGSTYYADSVKGRFTISRDNAKNTVYLQMNSLKPEDTAVYYCARDGVGRGYGYFTPLGYDYWGQGTQVTVSS”, the “polyreactivity (PSR sort gate)” value is reported as “low polyreactivity”.
With “QVQLVESGGGLVQAGGSLRLSCAASGSIFYRYAIGWYRHPPGKERELVAAITRGGTTYYADSVKGRFTISRDNAKNTVYLQMNSLKPEDSAVYYCAARLRYTTVIYYYWGQGTQVTVSS” the “polyreactivity (PSR sort gate)” value was “high polyreactivity”.
For “QGQLVESGGGLVQAGGSLRLSCAAYGSTFYLYPMGRYRQAPGKERELVASISLSGRSTYYADSVKGRFTISRDNAKNTVYLQMNRLKQEDTAVYYCAARRFAYYFQYLGGGYWGQGTQVTVSS”, the “polyreactivity (PSR sort gate)” value was “high polyreactivity”.
In the case of “QVQLVESGAGLVQAGGSLRLSCAASGFIFFYYAMGWYRQAPGKERELVAAISASGGSTYYADSVKGRFTISRDNAKNTVYLQLNSLKPEDTAVYYCAARYRKAESARWEYDYWGQGTQVTVSS”, the “polyreactivity (PSR sort gate)” value is reported as “high polyreactivity”.
In the case of “QVQLVESGGGLDQAGGSLRLSSAASGSIFVDNAMGWYRQAPGKERELVAAISRRGGSTYYADSVKGRFTISRDNAKNTVYLQMNSLKPEDTAVYYCNKKNIQFYQGASDYWGQGTQVTVSS”, the “polyreactivity (PSR sort gate)” value is reported as “high polyreactivity”.
With “QVQLVESGGGLVQAGGSLRLSCAASGFIFTVYALGWYRQAPVKERELVATITGTGDTNYADSVKGRFTISRDNAKNTVYLQMNSLKPEDTAVYYCAVSPRVPFRKPVLTPYNMYYWGQGTQVTVSS” the “polyreactivity (PSR sort gate)” value was “high polyreactivity”.
For “QVQLVESGGGLVQAGGSLRLSCAASGFTFKSYAMGWYRQAPGKERELVAGISRNGGRTYYADSVKGRFTISRDNAKNTVYLQMNSLKPEDTAVYYCAARIYTSRDNYWGQGTQVTVSS”, the “polyreactivity (PSR sort gate)” value was “high polyreactivity”.
For “QVQLVESGGGLVQAGGSLRLSCAASGFIFYKNAMGWYRQAPGKERELVAAITQRGGRTYYADSVKGRFTISRDNSKNTVYLQMNSLKPEDTAVYYCAAKALYGKQAWRYNYWGQGTQVTVSS”, the “polyreactivity (PSR sort gate)” value was “high polyreactivity”.
For “QVQLVESGGGLVQAGGSLRLSCAAYGRIFAYYAMGWYRQAPGKERELVAAISSGGTTNYADSVKGRFTISRDNAKNTVYLQMNSLKPEDTAVYYCNADGWRRSRQYYYWGQGTQVTVSS”, the “polyreactivity (PSR sort gate)” value was “low polyreactivity”.
For “QVQLVESVGGLDQAGGSLRLSGAASGIIFEGNALGWYRQAPGKERELVAAITSRGTRTYYADSVKGRFTISRDHAKNTVYLQMNSLKPEDTAVYYCAKLTSVTGKSGRYGYEYWGQGTQVTVSS”, the “polyreactivity (PSR sort gate)” value was “high polyreactivity”.
In the case of “QVQLLESGGGLVQAGGSLRLSCAASGGTFPQYAMGWYRKAPGKERELVAVNTRSGRTNYADTVKARFTISRDNAKNTVYVQMNSLKPEDTAVYYCNADEVDDEVSPDLTEMDYWGQGTQVTVSS”, the “polyreactivity (PSR sort gate)” value is reported as “low polyreactivity”.
In the case of “QVQLQESGGGLMQAGGSQRLSCAASGSISYYSDMGWYRQSPGKEREFVAGIGYGTTTNYADSVKGRFTTSRDNAKNTVYLQMISMKPEDTAVYYCAAYQGNGYEFYYWGQGTQVTVRS”, the “polyreactivity (PSR sort gate)” value is reported as “low polyreactivity”.
With “QVQLVESGGGLVQAGGSLRLSCAASGRTFGVYAMGWYRQAPGKERELVAGIRWRGGSTYYADSVKGRFTISRDNAKNTVYLQMNSLKPEDTAVYYCAAKVYYLYDSIWAWVIIRYDYWGQGTQVTVSS” the “polyreactivity (PSR sort gate)” value was “low polyreactivity”.
In the case of “QVQLVESGGGLVQAGGSLRLSCAASGRIFFVNTMGWYRQAPVKERELVATISCSGGSTYYADSVKGRFTISRDNAKNTVYLQMNTLKPEDTAVYYCNRSLTGYDELGYPVPYTYDYWGQGTQVTVSS”, the “polyreactivity (PSR sort gate)” value is reported as “low polyreactivity”.
For “QVQLVESGGGLVQAGGSLRLSCAASGSTFDDYVMGWYRQAPGKERELVAGINSRGTSTDYADSVKGRFTISRDNAKNTVYLQMNSLIPEDTAVYYCAADDSHGYDYWGQGTQVTVSS”, the “polyreactivity (PSR sort gate)” value was “low polyreactivity”.
With “QVQLVESGGGLVQAGRSLRLICAASGSTFPSYAMGWYRQAPGNERELVAAINSGGGTNYADAVKGRFTISRDNAKNTVYLQMNSLKPEDTAVFYCAKSRYDYTKTEGGYWGQATQVTVSS” the “polyreactivity (PSR sort gate)” value was “low polyreactivity”.
For “QVQLVESGGGLVQAGGSLRLSCAASGITFWGYAMGWYRQAPGKEREFVARINWSGGRTYYAESVKGRFTISRDNAKNTVYLQMNSLKPEDTAVYYCAATSLIYGYRTYDYWGQGTQVTVSS”, the “polyreactivity (PSR sort gate)” value was “high polyreactivity”.
For “QVQLVESGGGLVQAGGSLRLSCAASGRIFGYYAMGWSRQAPGKERELVAAISSDGSTYYADSVKGRFTISRDNAENTVYLQMNSLKPEDTAVYYCAKEGRWDSYGYSAQPFYYWGQGTQVTVSS”, the “polyreactivity (PSR sort gate)” value was “low polyreactivity”.
In the case of “QVQLVESGVGLVQAGGSLRLSCAASGSTFRRNTMGWYRKAPGKERELVAAINYSGGSTYYADSVKGRFTISRDNAKNTVYLQMNSLKPEDTAVYYCAARYAYDFPYYYWGQGTQVTVSS”, the “polyreactivity (PSR sort gate)” value is reported as “high polyreactivity”.
In the case of “QVQLVESGGGLVQAGGSLRLSCAASGRILSSYAMGWYRQAPGKERELVARISYSGGRTYYADSVKGRFTISRDNAKNTVYLQMNSLKPEDTAVYYCAAVSRVHFSYIYDYWGQGTQVTVSS”, the “polyreactivity (PSR sort gate)” value is reported as “high polyreactivity”.
With “QVQLVESGGGLVQAGGNLRLSCAASGSIFPRNAMGWYRQAPGKERELVAAISWRGGSTYYADSVKGRFTISRDNAKNTVYLQMNSLKPEDTAVYYCAATTYRSRYDYWGQGTQVTVSS” the “polyreactivity (PSR sort gate)” value was “high polyreactivity”.
In the case of “QVQLVESGGGLVQAGGSLRLSCAASGFTIRYYAMGWYRQAPGKERELVAAIRFSGGSTYYADSVKGRFTISRDNAKNTVYLQMNSLKPEDTAVYYCNARRRYGLDLGTFGYWGQGTQVTVSS”, the “polyreactivity (PSR sort gate)” value is reported as “high polyreactivity”.
For “QVQLVESGGGLVQAGGSLRLSCAASGFIFGQYAMGWSRQAPGKERELVAAISSVGTTNYADSVKGRFTISRDNAKNTVYLQMNSLKPEDTAVYYCNAPVFYYWDYSYFPYEVDYWGQGTQVTVSS”, the “polyreactivity (PSR sort gate)” value was “low polyreactivity”.
For “QVQLGESGGGLVQAGGILRLSCAASGSIFARYAMGWYRQPPGKERELVAAISSNSASTYYADSVKGRFTISRDNAKNTVYLQMNCLIPEDTAVYYCATAYRSYWLNDYWGQGTQVTVSS”, the “polyreactivity (PSR sort gate)” value was “low polyreactivity”.
In the case of “QVQLVESGGGLVQAGGSLRLSCAASGSTISGYAMGWYRQAPGKEREFVASIRRSGGSTYYADSVKGRFTISRDNAKNTVYLQMNSLKPEDTAVYYCAKRYVVSRGDYWGQGTQVTVSS”, the “polyreactivity (PSR sort gate)” value is reported as “high polyreactivity”.
In the case of “QVQLVESGGGLVQAGGSLRLSCAASGSIFYSYAMGWYRQAPGKDRELVARITSSTGRTYYADSVKGRFTISRDNAKNTVYLQMNSLKPEDTAVYYCAARSASRSMDYWGQGTQVTVSS”, the “polyreactivity (PSR sort gate)” value is reported as “high polyreactivity”.
With “QVHLVESGGGLVQAGCSLRVSCAASGRIFLYTGKGWSRQAAGKERELVAAISSGGSTYYADSVKGRFTISRDNAKNTVYLQMNSLKPEDTAVYYCAKEGHVVIFYIGQYELDFWGQGTQVTVSS” the “polyreactivity (PSR sort gate)” value was “low polyreactivity”.
With “QVQLVESGGGLVQAGGSLRLSCAASGFTFDANAMGWYRQAPGKERELVAAITRFGSTFYADSVKGRFTISRDNAKNTVYLQMNSLKPEDTAVYYCNAARDHVSGYDYWGQGTQVTVSS” the “polyreactivity (PSR sort gate)” value was “low polyreactivity”.
For “QVQLVESGGGLVQAGGSLRLSCAASGSIFGVNDMGWYRQAPGKERELVAGISSSGGSTYDADSVMGRFTISRDNAKNTVYLQMNSLKPEDTAVYYCAARKLYRPRGRRVGYWGQGTQVTVSS”, the “polyreactivity (PSR sort gate)” value was “low polyreactivity”.
In the case of “QVQLVESAGGLVQAGGSLSLSCAASGRIFYYNTMGWYRQAPGKERELVAAISSTASTTYADSVKGRFTISRDNAKNTVYLQMNILKPEDTAVYYCAADHRYHWAYPRGYYYWGQGTQVTVSS”, the “polyreactivity (PSR sort gate)” value is reported as “high polyreactivity”.
For “QVQLVESGGGLVQAGGSLRLSCAASGSIFRGYDMGWYRQPPGKERELVAAISRSGGITYYADSVKGRFTISRDNAKNTVYLNMNSLKPEVTAVYYCAASRAGGYYGKGYSWGQGTQVTVSS”, the “polyreactivity (PSR sort gate)” value was “high polyreactivity”.
For “QVQLVESGGGLVQAGGSLRLSCAASGFTFNFYTMGWYRQAPGKERELVAAITWSGGSTYYADSVKGRFTISRDNAKNTVYLQLNSLKPEDTAVYYCAATQQSRDRRFNYWGQGTQVTVSS”, the “polyreactivity (PSR sort gate)” value was “high polyreactivity”.
In the case of “QVQLVESGGGLVQAGGSLRLSCAASGSTFRYYAMGWYRQAPGKVRELVAAITSSGGSTYYADSVKGRFTISRDNEKNTVYLQMNSLKPEDTAVYYCNAVSSYREDDYWGQGTQVTVSS”, the “polyreactivity (PSR sort gate)” value is reported as “high polyreactivity”.
